These results are taken from patent US20250326826A1 (CENTRO DE INGENIER A GEN TICA Y BIOTECNOLOG A, published 2025).

Read-outs that look alike come from different tables or passages of the source.

Assay [1] deals with T1, Recombinant human bFGF (human, UniProt P09038 143-288, limits assumed).
T1 construct: Bought (Sigma); also called hFGF-2; human basic fibroblast growth factor
As to the kind of experiment: competition ELISA, coated bFGF, competitor Fc-FGFR1. The method, then: (§1) The ability of VHHs to hinder receptors for binding to their ligand was assessed by ELISA, for which 96-well plates (NUNC, USA) were coated with GST-hVEGF or bFGF and blocked as described in the previous section. Serial 1:2 dilutions of the purified VHHs, from […] to […], were added and the plates and incubated for 1 h at 37° C. In this step, some wells were left where only PBS-milk was added. […] After 45 min incubation at 37° C., plates were washed with PBS-0.05% Tween. To detect receptor binding, HRP-conjugated anti-human IgG antibody was added, diluted 1:5000 in PBS-0.5% milk. After incubation for 1 h at 37° C., the plates were washed with PBS-Tween, and TMB was added. The reaction was stopped after 10 min. Wells incubated with the receptors without the addition of the antibody fragments were taken as reference for maximum binding in the absence of competitor. In this assay, in the case of inhibition of the VEGF/VEGFR axis, the CIGB166a antibody fragment was used as a positive control, and an anti-FGF polyclonal antibody was used for the FGF/FGFR axis. The percentage of inhibition of receptor binding to its ligand was calculated as follows: […]
For orientation: An ELISA detects its analyte on a solid surface through an enzyme-linked reagent.

Assay [2] has as its target T2, GST-hVEGF121 (human, UniProt P15692-9 27-147).
T2 construct: plate coating of the VEGF ELISAs; also called human VEGF; not shown: glutathione S-transferase (GST) fusion partner
T2 sequence (looked up): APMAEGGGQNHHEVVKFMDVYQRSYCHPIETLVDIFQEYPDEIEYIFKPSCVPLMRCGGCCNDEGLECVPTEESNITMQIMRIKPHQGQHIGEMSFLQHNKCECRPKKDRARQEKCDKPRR
As to the kind of experiment: ELISA, coated GST-hVEGF. The method, then: (§2) The 96-well plates were coated with 100 μL/well of a solution of GST-hVEGF121, GST-mVEGF120, or GST at a concentration of 20 μg/mL, or with a solution of VEGFKDR- at a concentration of 10 μg/mL, or hFGF-2 or mFGF-2 at a concentration of 5 μg/mL in 1×PBS for 16 hours at 4° C. After the plates were blocked with PBS-5% skim milk for one hour, 1:2 serial dilutions of the purified VHHs were added, starting at 2 μg/mL in PBS-0.5% skim milk. The plates were incubated for 1 hour at 37° C. and after several washes, the monoclonal antibody 9E10, specific for c-myc, was added. After one hour of incubation at 25° C. the plates were washed thoroughly. The binding of the fragment to the antigen in the solid phase was detected by the peroxidase activity using 100 μL/well of TMB. The reaction was stopped with 50 μL/well of stop solution, and absorbance values at 450 nm were determined in a microtiter plate reader.

Assay [3] addresses T1, Recombinant human bFGF. As to the kind of experiment: ELISA, coated human bFGF. The method, then:
as §2
SEQ ID NO: 18 and SEQ ID NO: 19, and the bivalent Nb-VV6 and Nb-FF2, with sequences identified as SEQ ID NO: 20 and SEQ ID NO: 21, were expressed and purified as described in the Example 1. In all cases, the purity and identity of the proteins were verified by SDS-PAGE 12% and anti-polyhistidine Western Blot. […] The experimental mass of the polypeptides and the arrangement of the disulfide bridges were checked by ESI/MS-MS. The experimental and theoretical mass, for each polypeptide coincided, with errors less than 0.0015% in all cases, and the formation of intramolecular bridges between C22-C101 and C168-C247 was verified. […] The biological activity of the polypeptides was evaluated by ELISA for recognition of the VEGF and bFGF antigens, and by their ability to displace VEGF and bFGF binding to their respective VEGFR2 and FGFR1 receptors. […] Similarly, it was shown that the ability to displace the binding of antigens by their receptors was not affected.

In assay [4] the target is VEGF (soluble stimulus added to cell cultures). The assay is described as follows: cell-based or functional assay.
Chain of VEGF (soluble stimulus added to cell cultures) (P15692 whole entry): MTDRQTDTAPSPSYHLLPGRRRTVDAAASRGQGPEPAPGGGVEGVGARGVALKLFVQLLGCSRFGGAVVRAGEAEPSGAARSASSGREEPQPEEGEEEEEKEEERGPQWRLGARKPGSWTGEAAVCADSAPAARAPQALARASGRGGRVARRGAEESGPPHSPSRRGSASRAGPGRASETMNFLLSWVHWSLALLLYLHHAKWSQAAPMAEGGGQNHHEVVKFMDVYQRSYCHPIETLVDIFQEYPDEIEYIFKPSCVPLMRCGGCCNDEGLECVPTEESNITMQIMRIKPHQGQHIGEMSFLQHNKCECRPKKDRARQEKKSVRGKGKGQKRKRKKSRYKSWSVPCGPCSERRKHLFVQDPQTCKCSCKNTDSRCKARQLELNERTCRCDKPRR
Assay [5] concerns the target bFGF (soluble stimulus added to cell cultures). As to the kind of experiment: cell-based or functional assay.
The target in assay [6] is T2, GST-hVEGF121. The assay is described as follows: competition ELISA, coated GST-hVEGF, competitor Fc-VEGFR2. As for the experimental part:
as §1
The biological effect of VEGF is a consequence of its binding to two fundamental receptors (VEGFR1 and VEGFR2), so for a polypeptide that binds to VEGF to be effective in the therapeutic setting, it must block these interactions (Shibuya, Cell Structure and Function, 2001: 26: 25-35). The ability of Nb-V1 to compete with receptors 1 and 2 for binding to its ligand (VEGF) was assessed by solid phase ligand competition ELISA, as described above.

Assay [7] addresses VEGF (soluble stimulus added to cell cultures). The assay is described as follows: cell-based or functional assay. The source holds these as a separate data set.
The target in assay [8] is Human VEGF (dendritic cell assay) (human, UniProt P15692-4 27-191, limits assumed). The assay is described as follows: cell-based or functional assay.
The target in assay [9] is T2, GST-hVEGF121. As to the kind of experiment: ELISA, coated GST-hVEGF. This is another data set of the same source.
For assay [10], the target named is T2, GST-hVEGF121. The assay is described as follows: competition ELISA, coated GST-hVEGF, competitor Fc-VEGFR2. This is another data set of the same source.
Assay [11] addresses T1, Recombinant human bFGF. The assay is described as follows: competition ELISA, coated bFGF, competitor Fc-FGFR1. The source holds these as a separate data set.
Assay [12] addresses T1, Recombinant human bFGF. As to the kind of experiment: ELISA, coated human bFGF. This is another data set of the same source.

T1 sequence (P09038 143-288 limits assumed): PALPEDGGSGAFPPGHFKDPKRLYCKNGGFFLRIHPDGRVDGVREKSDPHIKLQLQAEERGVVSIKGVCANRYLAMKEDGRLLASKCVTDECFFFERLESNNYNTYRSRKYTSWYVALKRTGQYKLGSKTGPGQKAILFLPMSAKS

B1: Nb-VF3 (bispecific antibody)
chain: QVQLVESGGGLVQPGGSLRLSCAASGNSAEDRLYNSYTWFRQAPGQGLEAVAAISSHFSAGLTYYADSVKGRFTISRDNSKNTLYLQMNSLRAEDTAVYYCEITSHASHNDAWSTPRTVWGQGTLVTVSSAHHSEDPSSKAPKAPAQVQLVESGGGLVQPGGSLRLSCAASGTEDGRLLTLGGSWFRQAPGQGLEAVAAIGAGDRGGATYYADSVKGRFTISRDNSKNTLYLQMNSLRAEDTAVYYCTALYERQPQLAATKVARKWGQGTLVTVSSAAAGSEQKLISEEDLNSHHHHHH
notes: Bispecific tandem VHH (VEGF and bFGF); with c-myc and histidine tag
For orientation: IC50 means the concentration needed to halve the response being measured. In general, EC50 refers to the concentration giving half of the maximal effect. For the molecule B1, the IC50 with Recombinant human bFGF [1] worked out at 136 nM; with GST-hVEGF121 [6], 28.5 nM. Moreover, the results for the EC50 with GST-hVEGF121 [2] and in the assay with Recombinant human bFGF [3] were 4.49 nM and 11.3 nM, respectively. The “IC50, proliferation of HDMEC cells +VEGF (5 ng/ml)” value in assay [4] worked out at 132 nM. Further, in [5], the “IC50, proliferation of HDMEC cells +bFGF (10 ng/ml)” value was determined as 120 nM.

B2: Nb-FV1 (bispecific antibody)
chain: QVQLVESGGGLVQPGGSLRLSCAASGTEDGRLLTLGGSWFRQAPGQGLEAVAAIGAGDRGGATYYADSVKGRFTISRDNSKNTLYLQMNSLRAEDTAVYYCTALYERQPQLAATKVARKWGQGTLVTVSSAHHSEDPSSKAPKAPAQVQLVESGGGLVQPGGSLRLSCAASGNSAEDRLYNSYTWFRQAPGQGLEAVAAISSHFSAGLTYYADSVKGRFTISRDNSKNTLYLQMNSLRAEDTAVYYCEITSHASHNDAWSTPRTVWGQGTLVTVSSAAAGSEQKLISEEDLNSHHHHHH
notes: Bispecific tandem VHH (bFGF and VEGF); with c-myc and histidine tag
Turning to B2, in the assay with Recombinant human bFGF [1], the IC50 turned out to be 131 nM. Besides, in [7], the “PD1 expression (%) in CD8+ cells treated with VEGF, VHH 1 µg/mL” value turned out to be 63%; the “PD1 expression (%) in CD8+ cells treated with VEGF, VHH 5 µg/mL” value turned out to be 55%; the “PD1 expression (%) in CD8+ cells treated with VEGF, VHH 10 µg/mL” value amounted to 40%. A half-maximal response with GST-hVEGF121 [2] (EC50) required 4.59 nM. Further, in the assay with Recombinant human bFGF [3], the EC50 was 11.5 nM. Besides, the “IC50, proliferation of HDMEC cells +VEGF (5 ng/ml)” value in assay [4] was found to be 129 nM. In addition, in [5], the “IC50, proliferation of HDMEC cells +bFGF (10 ng/ml)” value came to 122 nM. Moreover, the IC50 with GST-hVEGF121 [6] came to 28.3 nM. Besides, in assay [8], the “CD86 (MFI) on dendritic cells +VEGF +LPS, VHH 1 µg/mL” value is 2030 MFI; the “CD86 (MFI) on dendritic cells +VEGF +LPS, VHH 5 µg/mL” value was determined as 3200 MFI; the “CD86 (MFI) on dendritic cells +VEGF +LPS, VHH 10 µg/mL” value was determined as 17500 MFI; the “MHCII (MFI) on dendritic cells +VEGF +LPS, VHH 1 µg/mL” value was found to be 4980 MFI. In assay [8], the “MHCII (MFI) on dendritic cells +VEGF +LPS, VHH 5 µg/mL” value was determined as 6000 MFI and the “MHCII (MFI) on dendritic cells +VEGF +LPS, VHH 10 µg/mL” value worked out at 17500 MFI.

B3: Nb-V1\cmycH6 (VHH)
VHH: QVQLVESGGGLVQPGGSLRLSCAASGNSAEDRLYNSYTWFRQAPGQGLEAVAAISSHFSAGLTYYADSVKGRFTISRDNSKNTLYLQMNSLRAEDTAVYYCEITSHASHNDAWSTPRTVWGQGTLVTVSS
notes: Nb-V1 without c-myc tracer peptide and histidine tag
Regarding B3, in the assay with GST-hVEGF121 [9], the EC50 was determined as 4.64 nM. Further, the IC50 in the assay with GST-hVEGF121 [10] is 28.6 nM.

B4: Nb-FF2\cmycH6 (VHH)
chain: QVQLVESGGGLVQPGGSLRLSCAASGTEDGRLLTLGGSWFRQAPGQGLEAVAAIGAGDRGGATYYADSVKGRFTISRDNSKNTLYLQMNSLRAEDTAVYYCTALYERQPQLAATKVARKWGQGTLVTVSSAHHSEDPSSKAPKAPAQVQLVESGGGLVQPGGSLRLSCAASGTEDGRLLTLGGSWFRQAPGQGLEAVAAIGAGDRGGATYYADSVKGRFTISRDNSKNTLYLQMNSLRAEDTAVYYCTALYERQPQLAATKVARKWGQGTLVTVSS
notes: Nb-FF2 without c-myc tracer peptide and histidine tag
Take B4: the IC50 with Recombinant human bFGF [11] turned out to be 53.7 nM. The EC50 with Recombinant human bFGF [12] was found to be 5.98 nM.

B5: Nb-FV1\cmycH6 (bispecific antibody)
chain: QVQLVESGGGLVQPGGSLRLSCAASGTEDGRLLTLGGSWFRQAPGQGLEAVAAIGAGDRGGATYYADSVKGRFTISRDNSKNTLYLQMNSLRAEDTAVYYCTALYERQPQLAATKVARKWGQGTLVTVSSAHHSEDPSSKAPKAPAQVQLVESGGGLVQPGGSLRLSCAASGNSAEDRLYNSYTWFRQAPGQGLEAVAAISSHFSAGLTYYADSVKGRFTISRDNSKNTLYLQMNSLRAEDTAVYYCEITSHASHNDAWSTPRTVWGQGTLVTVSS
notes: Nb-FV1 without c-myc tracer peptide and histidine tag
In the case of B5, the EC50 in the assay with GST-hVEGF121 [9] turned out to be 4.56 nM; with Recombinant human bFGF [12], 11.8 nM. Besides, the half-maximal inhibitory concentration (IC50) was determined as 28.6 nM with GST-hVEGF121 [10] and 132 nM in the assay with Recombinant human bFGF [11].

B6: Nb-VV6\cmycH6 (VHH)
chain: QVQLVESGGGLVQPGGSLRLSCAASGNSAEDRLYNSYTWFRQAPGQGLEAVAAISSHFSAGLTYYADSVKGRFTISRDNSKNTLYLQMNSLRAEDTAVYYCEITSHASHNDAWSTPRTVWGQGTLVTVSSAHHSEDPSSKAPKAPAQVQLVESGGGLVQPGGSLRLSCAASGNSAQDRLYNSYTWFRQAPGQGLEAVAAISSHFSAGLTYYADSVKGRFTISRDNSKNTLYLQMNSLRAEDTAVYYCEITSHASHNDAWSTPRTVWGQGTLVTVSS
notes: Nb-VV6 without c-myc tracer peptide and histidine tag
Regarding B6, in the assay with GST-hVEGF121 [9], the EC50 was determined as 1.78 nM. The IC50 with GST-hVEGF121 [10] was determined as 5.23 nM.

B7: Nb-VF3\cmycH6 (bispecific antibody)
chain: QVQLVESGGGLVQPGGSLRLSCAASGNSAEDRLYNSYTWFRQAPGQGLEAVAAISSHFSAGLTYYADSVKGRFTISRDNSKNTLYLQMNSLRAEDTAVYYCEITSHASHNDAWSTPRTVWGQGTLVTVSSAHHSEDPSSKAPKAPAQVQLVESGGGLVQPGGSLRLSCAASGTEDGRLLTLGGSWFRQAPGQGLEAVAAIGAGDRGGATYYADSVKGRFTISRDNSKNTLYLQMNSLRAEDTAVYYCTALYERQPQLAATKVARKWGQGTLVTVSS
notes: Nb-VF3 without c-myc tracer peptide and histidine tag
Consider B7, for which the EC50 came to 4.84 nM with GST-hVEGF121 [9] and 11.5 nM with Recombinant human bFGF [12]. The IC50 was 28.4 nM with GST-hVEGF121 [10] and 137 nM with Recombinant human bFGF [11].

B8: Nb-F3\cmycH6 (VHH)
VHH: QVQLVESGGGLVQPGGSLRLSCAASGTEDGRLLTLGGSWFRQAPGQGLEAVAAIGAGDRGGATYYADSVKGRFTISRDNSKNTLYLQMNSLRAEDTAVYYCTALYERQPQLAATKVARKWGQGTLVTVSS
notes: Nb-F3 without c-myc tracer peptide and histidine tag
Take B8: the IC50 with Recombinant human bFGF [11] came out at 134 nM. Also, the EC50 with Recombinant human bFGF [12] came out at 11.5 nM.
